# Measured values published in patent US20200352995A1.
# Key:
# [1] = biological target: LAG3 (CD223) on BCMA-specific CTL (human) (UniProt P18627); assay: cell-based or functional assay
# [2] = biological target: OX40 (CD134) on BCMA-specific CTL (human) (UniProt P43489); assay: cell-based or functional assay
# Chain of OX40 (CD134) on BCMA-specific CTL (human) (P43489 29-277): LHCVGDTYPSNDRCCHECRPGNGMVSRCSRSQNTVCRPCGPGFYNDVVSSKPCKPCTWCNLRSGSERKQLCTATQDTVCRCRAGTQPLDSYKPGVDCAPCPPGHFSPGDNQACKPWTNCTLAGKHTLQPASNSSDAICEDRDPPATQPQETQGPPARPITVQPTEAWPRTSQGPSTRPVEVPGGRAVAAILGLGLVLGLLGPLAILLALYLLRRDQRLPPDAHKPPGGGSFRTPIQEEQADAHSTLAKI
# Chain of LAG3 (CD223) on BCMA-specific CTL (human) (P18627 23-525): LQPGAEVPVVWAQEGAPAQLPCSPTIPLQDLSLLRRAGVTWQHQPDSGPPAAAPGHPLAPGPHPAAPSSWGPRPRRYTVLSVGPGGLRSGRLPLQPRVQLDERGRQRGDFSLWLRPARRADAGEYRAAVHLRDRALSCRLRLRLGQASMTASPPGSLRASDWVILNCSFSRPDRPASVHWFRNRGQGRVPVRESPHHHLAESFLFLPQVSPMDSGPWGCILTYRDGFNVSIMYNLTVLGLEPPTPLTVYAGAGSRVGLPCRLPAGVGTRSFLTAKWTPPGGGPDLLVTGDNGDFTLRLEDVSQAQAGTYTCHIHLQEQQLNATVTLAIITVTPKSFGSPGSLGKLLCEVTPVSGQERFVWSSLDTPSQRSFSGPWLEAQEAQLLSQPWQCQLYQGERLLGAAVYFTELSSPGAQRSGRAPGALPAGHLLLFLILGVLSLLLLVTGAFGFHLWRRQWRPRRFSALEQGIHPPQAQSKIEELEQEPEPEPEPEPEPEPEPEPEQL
substance,measurement,setting,value
Clinical grade mAb to LAG3 (Bristol-Myers Squibb) (antibody),cytotoxic activity (CD107a degranulation) by memory CTL against HLA-A2+ McCAR MM cells,[1],14.5%
same,cytotoxic activity (CD107a degranulation) by memory CTL against HLA-A2+ U266 MM cells,[1],35.8%
Clinical grade mAb to OX40 (Bristol-Myers Squibb) (antibody),cytotoxic activity (CD107a degranulation) by memory CTL against HLA-A2+ McCAR MM cells,[2],20%
same,cytotoxic activity (CD107a degranulation) by memory CTL against HLA-A2+ U266 MM cells,[2],39.5%
